This note sets out measurements from paper doi:10.1101/2025.09.17.676191 (bioRxiv, 2025).

The term stoichiometry N denotes a count of units in the complex or per binding partner.

The data set deals with the molecule itself. Briefly: cryo-EM structure.

B1: wild-type mouse TRPV3 channel (natural protein, UniProt Q8K424 1-791, looked up)
chain: MNAHSKEMAPLMGKRTTAPGGNPVVLTEKRPADLTPTKKSAHFFLEIEGFEPNPTVTKTSPPIFSKPMDSNIRQCLSGNCDDMDSPQSPQDDVTETPSNPNSPSANLAKEEQRQKKKRLKKRIFAAVSEGCVEELRELLQDLQDLCRRRRGLDVPDFLMHKLTASDTGKTCLMKALLNINPNTKEIVRILLAFAEENDILDRFINAEYTEEAYEGQTALNIAIERRQGDITAVLIAAGADVNAHAKGVFFNPKYQHEGFYFGETPLALAACTNQPEIVQLLMENEQTDITSQDSRGNNILHALVTVAEDFKTQNDFVKRMYDMILLRSGNWELETMRNNDGLTPLQLAAKMGKAEILKYILSREIKEKPLRSLSRKFTDWAYGPVSSSLYDLTNVDTTTDNSVLEIIVYNTNIDNRHEMLTLEPLHTLLHTKWKKFAKYMFFLSFCFYFFYNITLTLVSYYRPREDEDLPHPLALTHKMSWLQLLGRMFVLIWATCISVKEGIAIFLLRPSDLQSILSDAWFHFVFFVQAVLVILSVFLYLFAYKEYLACLVLAMALGWANMLYYTRGFQSMGMYSVMIQKVILHDVLKFLFVYILFLLGFGVALASLIEKCSKDKKDCSSYGSFSDAVLELFKLTIGLGDLNIQQNSTYPILFLFLLITYVILTFVLLLNMLIALMGETVENVSKESERIWRLQRARTILEFEKMLPEWLRSRFRMGELCKVADEDFRLCLRINEVKWTEWKTHVSFLNEDPGPIRRTADLNKIQDSSRSNSKTTLYAFDELDEFPETSV
Turning to B1, the “stoichiometry N” value stood at 4.
